From patent publication US20150344570A1 (published 2015)

Tests used:
[1] = molecular target: T1, FcγRIIb (human, UniProt P31994 43-217); experiment: SPR (Biacore), antibody captured on chip, FcγR as analyte
T1 construct: extracellular domain; Soluble extracellular domain with a C-terminal His tag, expressed in FreeStyle293 cells; also called FcgRIIb; 2b; not shown: His tag attached to the C terminus
T1 sequence (looked up): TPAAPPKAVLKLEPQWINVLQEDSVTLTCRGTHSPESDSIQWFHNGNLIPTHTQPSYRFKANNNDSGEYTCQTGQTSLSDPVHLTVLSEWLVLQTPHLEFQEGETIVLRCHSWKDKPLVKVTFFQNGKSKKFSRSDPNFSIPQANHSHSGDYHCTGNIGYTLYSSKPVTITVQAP

[2] = molecular target: T2, FcγRIIIa (human, UniProt P08637 17-208); experiment: as above
T2 construct: extracellular domain; Soluble extracellular domain with a C-terminal His tag; also called FcgRIIIa; 3a; not shown: His tag attached to the C terminus
T2 sequence (P08637 17-208): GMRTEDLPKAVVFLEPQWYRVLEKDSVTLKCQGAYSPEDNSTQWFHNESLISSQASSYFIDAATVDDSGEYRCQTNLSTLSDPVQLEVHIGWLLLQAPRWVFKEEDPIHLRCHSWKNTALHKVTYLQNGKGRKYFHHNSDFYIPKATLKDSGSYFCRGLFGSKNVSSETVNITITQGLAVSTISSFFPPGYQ

[3] = molecular target: T2, FcγRIIIa; experiment: SPR; He/Con_3a (FcγRIIIa) divided by He/Con_2b (FcγRIIb)

B1: GpH7-A5/GpH7-B3 variant S239_05P/GpL16-k0 (antibody, human IgG1, kappa)
heavy 1: not shown
heavy 2: not shown
light: DIVMTQSPLSLPVTPGEPASISCQASESLVHSNRNTYLHWYLQKPGQSPQLLIYKVSNRFSGVPDRFSGSGSGTDFTLKISRVEAEDVGVYYCSQNTHVPPTFGQGTKVEIERTVAAPSVFIFPPSDEQLKSGTASVVCLLNNFYPREAKVQWKVDNALQSGNSQESVTEQDSKDSTYSLSSTLTLSKADYEKHKVYACEVTHQGLSSPVTKSFNRGEC
notes: Heterodimerized anti-glypican-3 IgG1; the mutation is in the GpH7-B3 chain only; also called He Ab
He/Con_2b [1]: 102 relative binding, GpH7-A5/GpH7-B3/GpL16-k0 = 100 | He/Con_3a [2]: 14.9 relative binding, GpH7-A5/GpH7-B3/GpL16-k0 = 100 | He_3a/2b (IIIa/IIb) [3]: 0.15 ratio

B2: GpH7-A5/GpH7-B3 variant S239_15Y/GpL16-k0 (antibody, human IgG1, kappa)
heavy 1: not shown
heavy 2: not shown
light: DIVMTQSPLSLPVTPGEPASISCQASESLVHSNRNTYLHWYLQKPGQSPQLLIYKVSNRFSGVPDRFSGSGSGTDFTLKISRVEAEDVGVYYCSQNTHVPPTFGQGTKVEIERTVAAPSVFIFPPSDEQLKSGTASVVCLLNNFYPREAKVQWKVDNALQSGNSQESVTEQDSKDSTYSLSSTLTLSKADYEKHKVYACEVTHQGLSSPVTKSFNRGEC
notes: as for B1
He/Con_2b [1]: 34.9 relative binding, GpH7-A5/GpH7-B3/GpL16-k0 = 100 | He/Con_3a [2]: 25.6 relative binding, GpH7-A5/GpH7-B3/GpL16-k0 = 100 | He_3a/2b (IIIa/IIb) [3]: 0.73 ratio

B3: GpH7-A5/GpH7-B3 variant P238_16H/GpL16-k0 (antibody, human IgG1, kappa)
heavy 1: not shown
heavy 2: not shown
light: DIVMTQSPLSLPVTPGEPASISCQASESLVHSNRNTYLHWYLQKPGQSPQLLIYKVSNRFSGVPDRFSGSGSGTDFTLKISRVEAEDVGVYYCSQNTHVPPTFGQGTKVEIERTVAAPSVFIFPPSDEQLKSGTASVVCLLNNFYPREAKVQWKVDNALQSGNSQESVTEQDSKDSTYSLSSTLTLSKADYEKHKVYACEVTHQGLSSPVTKSFNRGEC
notes: as for B1
He/Con_2b [1]: 115 relative binding, GpH7-A5/GpH7-B3/GpL16-k0 = 100 | He/Con_3a [2]: 30.7 relative binding, GpH7-A5/GpH7-B3/GpL16-k0 = 100 | He_3a/2b (IIIa/IIb) [3]: 0.27 ratio

B4: GpH7-A5/GpH7-B3 variant P238_18N/GpL16-k0 (antibody, human IgG1, kappa)
heavy 1: not shown
heavy 2: not shown
light: DIVMTQSPLSLPVTPGEPASISCQASESLVHSNRNTYLHWYLQKPGQSPQLLIYKVSNRFSGVPDRFSGSGSGTDFTLKISRVEAEDVGVYYCSQNTHVPPTFGQGTKVEIERTVAAPSVFIFPPSDEQLKSGTASVVCLLNNFYPREAKVQWKVDNALQSGNSQESVTEQDSKDSTYSLSSTLTLSKADYEKHKVYACEVTHQGLSSPVTKSFNRGEC
notes: as for B1
He/Con_2b [1]: 73.2 relative binding, GpH7-A5/GpH7-B3/GpL16-k0 = 100 | He/Con_3a [2]: 40.4 relative binding, GpH7-A5/GpH7-B3/GpL16-k0 = 100 | He_3a/2b (IIIa/IIb) [3]: 0.55 ratio

B5: GpH7-A5/GpH7-B3 variant S239_16H/GpL16-k0 (antibody, human IgG1, kappa)
heavy 1: not shown
heavy 2: not shown
light: DIVMTQSPLSLPVTPGEPASISCQASESLVHSNRNTYLHWYLQKPGQSPQLLIYKVSNRFSGVPDRFSGSGSGTDFTLKISRVEAEDVGVYYCSQNTHVPPTFGQGTKVEIERTVAAPSVFIFPPSDEQLKSGTASVVCLLNNFYPREAKVQWKVDNALQSGNSQESVTEQDSKDSTYSLSSTLTLSKADYEKHKVYACEVTHQGLSSPVTKSFNRGEC
notes: as for B1
He/Con_2b [1]: 49.4 relative binding, GpH7-A5/GpH7-B3/GpL16-k0 = 100 | He/Con_3a [2]: 29.2 relative binding, GpH7-A5/GpH7-B3/GpL16-k0 = 100 | He_3a/2b (IIIa/IIb) [3]: 0.59 ratio

B6: GpH7-A5/GpH7-B3 variant S239_19Q/GpL16-k0 (antibody, human IgG1, kappa)
heavy 1: not shown
heavy 2: not shown
light: DIVMTQSPLSLPVTPGEPASISCQASESLVHSNRNTYLHWYLQKPGQSPQLLIYKVSNRFSGVPDRFSGSGSGTDFTLKISRVEAEDVGVYYCSQNTHVPPTFGQGTKVEIERTVAAPSVFIFPPSDEQLKSGTASVVCLLNNFYPREAKVQWKVDNALQSGNSQESVTEQDSKDSTYSLSSTLTLSKADYEKHKVYACEVTHQGLSSPVTKSFNRGEC
notes: as for B1
He/Con_2b [1]: 86.1 relative binding, GpH7-A5/GpH7-B3/GpL16-k0 = 100 | He/Con_3a [2]: 56.9 relative binding, GpH7-A5/GpH7-B3/GpL16-k0 = 100 | He_3a/2b (IIIa/IIb) [3]: 0.66 ratio

B7: GpH7-A5/GpH7-B3 variant S239_01G/GpL16-k0 (antibody, human IgG1, kappa)
heavy 1: not shown
heavy 2: not shown
light: DIVMTQSPLSLPVTPGEPASISCQASESLVHSNRNTYLHWYLQKPGQSPQLLIYKVSNRFSGVPDRFSGSGSGTDFTLKISRVEAEDVGVYYCSQNTHVPPTFGQGTKVEIERTVAAPSVFIFPPSDEQLKSGTASVVCLLNNFYPREAKVQWKVDNALQSGNSQESVTEQDSKDSTYSLSSTLTLSKADYEKHKVYACEVTHQGLSSPVTKSFNRGEC
notes: Heterodimerized anti-glypican-3 IgG1; also called He Ab
He/Con_2b [1]: 144 relative binding, GpH7-A5/GpH7-B3/GpL16-k0 = 100 | He/Con_3a [2]: 76.2 relative binding, GpH7-A5/GpH7-B3/GpL16-k0 = 100 | He_3a/2b (IIIa/IIb) [3]: 0.53 ratio

B8: GpH7-A5/GpH7-B3 variant S239_07I/GpL16-k0 (antibody, human IgG1, kappa)
heavy 1: not shown
heavy 2: not shown
light: DIVMTQSPLSLPVTPGEPASISCQASESLVHSNRNTYLHWYLQKPGQSPQLLIYKVSNRFSGVPDRFSGSGSGTDFTLKISRVEAEDVGVYYCSQNTHVPPTFGQGTKVEIERTVAAPSVFIFPPSDEQLKSGTASVVCLLNNFYPREAKVQWKVDNALQSGNSQESVTEQDSKDSTYSLSSTLTLSKADYEKHKVYACEVTHQGLSSPVTKSFNRGEC
notes: as for B1
He/Con_2b [1]: 107 relative binding, GpH7-A5/GpH7-B3/GpL16-k0 = 100 | He/Con_3a [2]: 79.3 relative binding, GpH7-A5/GpH7-B3/GpL16-k0 = 100 | He_3a/2b (IIIa/IIb) [3]: 0.74 ratio

B9: GpH7-A5/GpH7-B3 variant S239_06M/GpL16-k0 (antibody, human IgG1, kappa)
heavy 1: not shown
heavy 2: not shown
light: DIVMTQSPLSLPVTPGEPASISCQASESLVHSNRNTYLHWYLQKPGQSPQLLIYKVSNRFSGVPDRFSGSGSGTDFTLKISRVEAEDVGVYYCSQNTHVPPTFGQGTKVEIERTVAAPSVFIFPPSDEQLKSGTASVVCLLNNFYPREAKVQWKVDNALQSGNSQESVTEQDSKDSTYSLSSTLTLSKADYEKHKVYACEVTHQGLSSPVTKSFNRGEC
notes: as for B1
He/Con_2b [1]: 101 relative binding, GpH7-A5/GpH7-B3/GpL16-k0 = 100 | He/Con_3a [2]: 78.2 relative binding, GpH7-A5/GpH7-B3/GpL16-k0 = 100 | He_3a/2b (IIIa/IIb) [3]: 0.78 ratio
